Target: soluble H-2K^b (K^bsol), heterodimer of truncated K^b heavy chain and murine β-2 microglobulin, purified empty from Drosophila cells (murine) (UniProt P01901)
Experiment: competitive RIA against [^125I]VSV-8 on K^bsol, P30 gel filtration, 23° C.

Row | Substance | Kd [nM]
1 | OVA-8 (peptide) | 4.1
2 | OVA-9C (peptide) | 11
3 | OVA-10C (peptide) | 14
4 | OVA-10N (peptide) | 280
